Source: ChEMBL document CHEMBL1156111, “Identification of the amino acid-AZT-phosphoramidase by affinity T7 phage display selection” (Bioorg Med Chem Lett, 2009)

Substrate: Cc1cn([C@H]2C[C@H](N=[N+]=[N-])[C@@H](COP(=O)(O)NCc3c[nH]c4ccccc34)O2)c(=O)[nH]c1=O
Assay: Hydrolysis activity of human HINT1 at pH 7.2 by continuous fluorescence assay

B1: Adenosine 5'-monophosphoramidase HINT1 (Homo sapiens), P49773 (protein)
chain: MADEIAKAQVARPGGDTIFGKIIRKEIPAKIIFEDDRCLAFHDISPQAPTHFLVIPKKHISQISVAEDDDESLLGHLMIVGKKCAADLGLNKGYRMVVNEGSDGGQSVYHVHLHVLGGRQMHWPPG
  Km: 981 µM
